According to the supplement of paper PMC12855868:

B1: library; numbered along this chain (parent)
chain: MAAAGGARLLRAASAVLGGPAGRWLHHAGSRAGSSGLLRNRGPGGSAEASRSLSVSARARSSSEDKITVHFINRDGETLTTKGKVGDSLLDVVVENNLDIDGFGACEGTLACSTCHLIFEDHIYEKLDAITDEENDMLDLAYGLTDRSRLGCQICLTKSMDNMTVRVPETVADARQSIDVGKTS

Variants of: B1
Assay: scaled log2 fold change in cell abundance, elesclomol vs control (0 = silent mean, 1 = nonsense mean) (scaled log2 ratio); higher = higher viability under elesclomol (loss of FDX1 cuproptosis function)
Settings: glucose 10 mM
Procedure: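 Deep mutational scan of full-length human FDX1: a pooled saturation-mutagenesis ORF library (every residue 2-184 mutated to all 19 amino acids plus stop, and silent codons where available) was expressed by lentivirus in FDX1-knockout ABC1 (14 days) or HEK293T (11 days) cells grown with elesclomol (ES) or DMSO control. Variant abundance came from ORF sequencing. The log2 fold change (ES vs control, mean of duplicates) was centred on the silent-variant mean (0) and scaled to the nonsense-variant mean (1). Higher values mean greater viability under ES, i.e. loss of FDX1 function in cuproptosis.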

[1] = with ABC1 FDX1 KO, elesclomol 5 nM, 14 days
[2] = with HEK293T FDX1 KO, elesclomol 40 nM, 11 days
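Further: variant abundance is its share of total variant reads in each endpoint sample, from next-generation sequencing of the integrated ORF PCR-amplified out of genomic DNA.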

Variant | scaled log2 fold change [1] | scaled log2 fold change [2]
MAAAGGARLLRAASAVLGGPAGRWLAHAGSRAGSSGLLRNRGPGGSAEASRSLSVSARARSSSEDKITVHFINRDGETLTTKGKVGDSLLDVVVENNLDIDGFGACEGTLACSTCHLIFEDHIYEKLDAITDEENDMLDLAYGLTDRSRLGCQICLTKSMDNMTVRVPETVADARQSIDVGKTS | 0.684 | 1.75
MAAAGGARLLRAASAVLGGPAGRWYHHAGSRAGSSGLLRNRGPGGSAEASRSLSVSARARSSSEDKITVHFINRDGETLTTKGKVGDSLLDVVVENNLDIDGFGACEGTLACSTCHLIFEDHIYEKLDAITDEENDMLDLAYGLTDRSRLGCQICLTKSMDNMTVRVPETVADARQSIDVGKTS | 0.423 | 0.926
MAAAGGARLLRAASAVLGGPAGRWTHHAGSRAGSSGLLRNRGPGGSAEASRSLSVSARARSSSEDKITVHFINRDGETLTTKGKVGDSLLDVVVENNLDIDGFGACEGTLACSTCHLIFEDHIYEKLDAITDEENDMLDLAYGLTDRSRLGCQICLTKSMDNMTVRVPETVADARQSIDVGKTS | 0.536 | 
MAAAGGARLLRAASAVLGGPAGRWWHHAGSRAGSSGLLRNRGPGGSAEASRSLSVSARARSSSEDKITVHFINRDGETLTTKGKVGDSLLDVVVENNLDIDGFGACEGTLACSTCHLIFEDHIYEKLDAITDEENDMLDLAYGLTDRSRLGCQICLTKSMDNMTVRVPETVADARQSIDVGKTS | 0.28 | 0.019
MAAAGGARLLRAASAVLGGPAGRWHHHAGSRAGSSGLLRNRGPGGSAEASRSLSVSARARSSSEDKITVHFINRDGETLTTKGKVGDSLLDVVVENNLDIDGFGACEGTLACSTCHLIFEDHIYEKLDAITDEENDMLDLAYGLTDRSRLGCQICLTKSMDNMTVRVPETVADARQSIDVGKTS | 0.124 | -0.423
MAAAGGARLLRAASAVLGGPAGRWCHHAGSRAGSSGLLRNRGPGGSAEASRSLSVSARARSSSEDKITVHFINRDGETLTTKGKVGDSLLDVVVENNLDIDGFGACEGTLACSTCHLIFEDHIYEKLDAITDEENDMLDLAYGLTDRSRLGCQICLTKSMDNMTVRVPETVADARQSIDVGKTS | 0.238 | 0.0546
MAAAGGARLLRAASAVLGGPAGRWMHHAGSRAGSSGLLRNRGPGGSAEASRSLSVSARARSSSEDKITVHFINRDGETLTTKGKVGDSLLDVVVENNLDIDGFGACEGTLACSTCHLIFEDHIYEKLDAITDEENDMLDLAYGLTDRSRLGCQICLTKSMDNMTVRVPETVADARQSIDVGKTS | 0.607 | 1.17
MAAAGGARLLRAASAVLGGPAGRWQHHAGSRAGSSGLLRNRGPGGSAEASRSLSVSARARSSSEDKITVHFINRDGETLTTKGKVGDSLLDVVVENNLDIDGFGACEGTLACSTCHLIFEDHIYEKLDAITDEENDMLDLAYGLTDRSRLGCQICLTKSMDNMTVRVPETVADARQSIDVGKTS | -0.0213 | -1.08
MAAAGGARLLRAASAVLGGPAGRWRHHAGSRAGSSGLLRNRGPGGSAEASRSLSVSARARSSSEDKITVHFINRDGETLTTKGKVGDSLLDVVVENNLDIDGFGACEGTLACSTCHLIFEDHIYEKLDAITDEENDMLDLAYGLTDRSRLGCQICLTKSMDNMTVRVPETVADARQSIDVGKTS | 0.126 | 0.222
MAAAGGARLLRAASAVLGGPAGRWPHHAGSRAGSSGLLRNRGPGGSAEASRSLSVSARARSSSEDKITVHFINRDGETLTTKGKVGDSLLDVVVENNLDIDGFGACEGTLACSTCHLIFEDHIYEKLDAITDEENDMLDLAYGLTDRSRLGCQICLTKSMDNMTVRVPETVADARQSIDVGKTS | 0.318 | 1.23
MAAAGGARLLRAASAVLGGPAGRWEHHAGSRAGSSGLLRNRGPGGSAEASRSLSVSARARSSSEDKITVHFINRDGETLTTKGKVGDSLLDVVVENNLDIDGFGACEGTLACSTCHLIFEDHIYEKLDAITDEENDMLDLAYGLTDRSRLGCQICLTKSMDNMTVRVPETVADARQSIDVGKTS | -0.135 | -0.0782
MAAAGGARLLRAASAVLGGPAGRWGHHAGSRAGSSGLLRNRGPGGSAEASRSLSVSARARSSSEDKITVHFINRDGETLTTKGKVGDSLLDVVVENNLDIDGFGACEGTLACSTCHLIFEDHIYEKLDAITDEENDMLDLAYGLTDRSRLGCQICLTKSMDNMTVRVPETVADARQSIDVGKTS | -0.623 | 
MAAAGGARLLRAASAVLGGPAGRWVHHAGSRAGSSGLLRNRGPGGSAEASRSLSVSARARSSSEDKITVHFINRDGETLTTKGKVGDSLLDVVVENNLDIDGFGACEGTLACSTCHLIFEDHIYEKLDAITDEENDMLDLAYGLTDRSRLGCQICLTKSMDNMTVRVPETVADARQSIDVGKTS | 0.553 | 
MAAAGGARLLRAASAVLGGPAGRWAHHAGSRAGSSGLLRNRGPGGSAEASRSLSVSARARSSSEDKITVHFINRDGETLTTKGKVGDSLLDVVVENNLDIDGFGACEGTLACSTCHLIFEDHIYEKLDAITDEENDMLDLAYGLTDRSRLGCQICLTKSMDNMTVRVPETVADARQSIDVGKTS | -0.505 | 
MAAAGGARLLRAASAVLGGPAGRWSHHAGSRAGSSGLLRNRGPGGSAEASRSLSVSARARSSSEDKITVHFINRDGETLTTKGKVGDSLLDVVVENNLDIDGFGACEGTLACSTCHLIFEDHIYEKLDAITDEENDMLDLAYGLTDRSRLGCQICLTKSMDNMTVRVPETVADARQSIDVGKTS | 0.221 | 
MAAAGGARLLRAASAVLGGPAGRWDHHAGSRAGSSGLLRNRGPGGSAEASRSLSVSARARSSSEDKITVHFINRDGETLTTKGKVGDSLLDVVVENNLDIDGFGACEGTLACSTCHLIFEDHIYEKLDAITDEENDMLDLAYGLTDRSRLGCQICLTKSMDNMTVRVPETVADARQSIDVGKTS | -0.703 | 
MAAAGGARLLRAASAVLGGPAGRWNHHAGSRAGSSGLLRNRGPGGSAEASRSLSVSARARSSSEDKITVHFINRDGETLTTKGKVGDSLLDVVVENNLDIDGFGACEGTLACSTCHLIFEDHIYEKLDAITDEENDMLDLAYGLTDRSRLGCQICLTKSMDNMTVRVPETVADARQSIDVGKTS | -0.498 | 
MAAAGGARLLRAASAVLGGPAGRWKHHAGSRAGSSGLLRNRGPGGSAEASRSLSVSARARSSSEDKITVHFINRDGETLTTKGKVGDSLLDVVVENNLDIDGFGACEGTLACSTCHLIFEDHIYEKLDAITDEENDMLDLAYGLTDRSRLGCQICLTKSMDNMTVRVPETVADARQSIDVGKTS | 0.14 | 1.29
MAAAGGARLLRAASAVLGGPAGRVLHHAGSRAGSSGLLRNRGPGGSAEASRSLSVSARARSSSEDKITVHFINRDGETLTTKGKVGDSLLDVVVENNLDIDGFGACEGTLACSTCHLIFEDHIYEKLDAITDEENDMLDLAYGLTDRSRLGCQICLTKSMDNMTVRVPETVADARQSIDVGKTS | 0.155 | -0.39
MAAAGGARLLRAASAVLGGPAGRRLHHAGSRAGSSGLLRNRGPGGSAEASRSLSVSARARSSSEDKITVHFINRDGETLTTKGKVGDSLLDVVVENNLDIDGFGACEGTLACSTCHLIFEDHIYEKLDAITDEENDMLDLAYGLTDRSRLGCQICLTKSMDNMTVRVPETVADARQSIDVGKTS | -0.838 | -0.244
